Test results: PMC11476177

T1: His-TonEBP sNT (UniProt O94916 1-548)
T1 sequence: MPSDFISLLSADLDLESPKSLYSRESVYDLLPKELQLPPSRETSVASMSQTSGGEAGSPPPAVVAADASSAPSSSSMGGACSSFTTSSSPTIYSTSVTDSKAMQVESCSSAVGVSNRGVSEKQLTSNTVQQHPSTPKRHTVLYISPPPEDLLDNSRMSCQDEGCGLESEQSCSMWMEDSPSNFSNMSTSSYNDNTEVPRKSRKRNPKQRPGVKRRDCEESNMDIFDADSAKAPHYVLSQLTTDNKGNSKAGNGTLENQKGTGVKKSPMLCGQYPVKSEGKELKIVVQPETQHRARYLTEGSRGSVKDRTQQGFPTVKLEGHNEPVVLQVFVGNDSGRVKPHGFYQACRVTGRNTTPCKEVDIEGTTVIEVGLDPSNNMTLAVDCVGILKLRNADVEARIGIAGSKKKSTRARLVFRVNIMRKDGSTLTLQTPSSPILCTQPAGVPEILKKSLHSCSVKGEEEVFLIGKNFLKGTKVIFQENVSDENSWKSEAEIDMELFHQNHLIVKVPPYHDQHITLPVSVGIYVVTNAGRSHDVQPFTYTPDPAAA

B1: Probe p65 (dsDNA)
DNA 1: AATGTAAGTGGGAAATTCCTCTGAATA
DNA 2: TATTCAGAGGAATTTCCCACTTACATT
B2: Probe IRF3/p65 (dsDNA)
DNA 1: ATAGGAAAACTGAAAGGGAGAAGTGAAAGTGGGAAATTCC
DNA 2: GGAATTTCCCACTTTCACTTCTCCCTTTCAGTTTTCCTAT

Columns and labels:
[1] = target: His-p65 (UniProt Q04206); test: SPR; settings: SPR: 10 mM HEPES, 150 mM NaCl, 3 mM EDTA, 0.05% P20, pH not stated, room temp, EMSA: 10 mM Tris-HCl pH 7.5, 10 mM NaCl, 40 mM KCl, 1 mM MgCl2, 1 mM EDTA
[2] = target: T1, His-TonEBP sNT; test: SPR; SPR: 10 mM HEPES, 150 mM NaCl, 3 mM EDTA, 0.05% P20, pH not stated, room temp; EMSA: 10 mM Tris-HCl pH 7.5, 10 mM NaCl, 40 mM KCl, 1 mM MgCl2, 1 mM EDTA, 1 mM DTT, 50 ug/mL BSA, 100 nM probe, 25 min room temp, 0.8% agarose; settings: protein: recombinant; tags: N-terminal His; chain copies: 2; label: biotin (SPR), 5' end of strand 1 as printed; text says dsDNA, only one strand given

Chain of His-p65 (Q04206 whole entry): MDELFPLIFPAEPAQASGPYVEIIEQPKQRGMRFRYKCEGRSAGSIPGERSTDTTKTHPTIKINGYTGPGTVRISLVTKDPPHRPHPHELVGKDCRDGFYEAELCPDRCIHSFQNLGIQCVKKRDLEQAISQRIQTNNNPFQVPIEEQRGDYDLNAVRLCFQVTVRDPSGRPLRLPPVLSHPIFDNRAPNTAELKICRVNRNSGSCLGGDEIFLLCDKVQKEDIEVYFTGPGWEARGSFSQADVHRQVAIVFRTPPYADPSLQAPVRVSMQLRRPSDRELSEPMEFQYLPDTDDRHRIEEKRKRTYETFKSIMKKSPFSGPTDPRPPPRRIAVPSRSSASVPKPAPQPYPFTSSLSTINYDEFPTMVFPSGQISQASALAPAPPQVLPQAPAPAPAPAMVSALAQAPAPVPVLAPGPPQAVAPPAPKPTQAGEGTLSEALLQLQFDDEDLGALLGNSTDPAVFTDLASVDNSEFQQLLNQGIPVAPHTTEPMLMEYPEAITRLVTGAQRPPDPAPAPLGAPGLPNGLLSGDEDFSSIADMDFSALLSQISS

Molecule | Kd [1] | Kd [2]
AATGTAAGTGGGAAATTCCTCTGAATA (double strand) [Probe p65] | 35.2 nM | –
ATAGGAAAACTGAAAGGGAGAAGTGAAAGTGGGAAATTCC (double strand) [Probe IRF3/p65] | 11.5 nM | –
B1 | – | 84.7 nM
B2 | – | 31.3 nM
